Data on two substances can be found in patent EP2164866B1.

The target of the test is epidermal growth factor receptor (EGFR) on EGFR positive U87 cells (UniProt P00533). Put plainly: FACS saturation binding to EGFR receptor.

As to “Anti-EGFR-Angiopep-2 conjugate (EGFR antibody monoclonal 528 cross-linked to Angiopep-2 with SATA)”, the Half saturation is 1.8 nM.
“EGFR antibody (monoclonal 528 available from ATCC)” yielded a Bmax (RFU) of 23.6 RFU and a Half saturation of 1.7 nM.
